Measured values: the Human Domainome abundance scans (Beltran et al. 2025)
± gives the uncertainty stated by the source.

B1: Gamma-crystallin S, residues 96 to 176; numbered along this chain, P22914 (parent)
chain: IQIFEKGDFSGQMYETTEDCPSIMEQFHMREIHSCKVLEGVWIFYELPNYRGRQYLLDKKEYRKPIDWGAASPAVQSFRRI

Variants of: B1
Assay: abundance fitness (aPCA) (normalised: wild type 0, dead -1); higher = more abundant; growth selection in yeast, the domain comes from the species named
Conditions: Homo sapiens

In order of rising abundance fitness:
1. IQIFEKGDFSGQMYETTEDCPSIMEQFHMREIHSQKVLEGVWIFYELPNYRGRQYLLDKKEYRKPIDWGAASPAVQSFRRI [C35Q]  -0.803 ± 0.097
2. IQIFEKGDFSGQMYETTEDCPSIMEQFHMREIHSCKVLEGVWIFYELPNSRGRQYLLDKKEYRKPIDWGAASPAVQSFRRI [Y50S]  -0.705 ± 0.041
3. IQIFEKGDFSGQMYETTEDCPSIMEQFHMREIHSCKVLEGVWIFYELPNYRGRQYLQDKKEYRKPIDWGAASPAVQSFRRI [L57Q]  -0.491 ± 0.37
4. IQIFEKGDFSGQMYETTEDCPSIMEQFHMREIHSCKVLEMVWIFYELPNYRGRQYLLDKKEYRKPIDWGAASPAVQSFRRI [G40M]  -0.464 ± 0.092
5. IQIFEKGDDSGQMYETTEDCPSIMEQFHMREIHSCKVLEGVWIFYELPNYRGRQYLLDKKEYRKPIDWGAASPAVQSFRRI [F9D]  -0.409 ± 0.061
6. IQIFEKGDFSGQMYETTEDCPSIMEQFHMREIHSCKVLEGVWIFYENPNYRGRQYLLDKKEYRKPIDWGAASPAVQSFRRI [L47N]  -0.203 ± 0.22
7. IQIFEKGDFSGQMYETTEDCPSIMEQFHMREIHSCKVLEGVWIFYELPVYRGRQYLLDKKEYRKPIDWGAASPAVQSFRRI [N49V]  -0.198 ± 0.028
8. IQIFEKGDFSGQMYETTEDNPSIMEQFHMREIHSCKVLEGVWIFYELPNYRGRQYLLDKKEYRKPIDWGAASPAVQSFRRI [C20N]  -0.134 ± 0.11
9. IQIFEKGDFSYQMYETTEDCPSIMEQFHMREIHSCKVLEGVWIFYELPNYRGRQYLLDKKEYRKPIDWGAASPAVQSFRRI [G11Y]  -0.094 ± 0.097
10. IQIFEKGDFSGQMYETTEDCPSIMEQFHMREIHSCKVLEGVWIFYELPNYRGRQYLLDKKEYRKPIDWGAASPAVQSFRRR [I81R]  -0.074 ± 0.14
11. IQIFTKGDFSGQMYETTEDCPSIMEQFHMREIHSCKVLEGVWIFYELPNYRGRQYLLDKKEYRKPIDWGAASPAVQSFRRI [E5T]  -0.07 ± 0.094
12. IQIFEKGDSSGQMYETTEDCPSIMEQFHMREIHSCKVLEGVWIFYELPNYRGRQYLLDKKEYRKPIDWGAASPAVQSFRRI [F9S]  -0.068 ± 0.042
13. IQIFEKGDFSGQMYTTTEDCPSIMEQFHMREIHSCKVLEGVWIFYELPNYRGRQYLLDKKEYRKPIDWGAASPAVQSFRRI [E15T]  -0.064 ± 0.11
14. IQIFEKGDFSGQMYETTEDCPSIMEQFHMREIHSCKVLESVWIFYELPNYRGRQYLLDKKEYRKPIDWGAASPAVQSFRRI [G40S]  -0.051 ± 0.061
15. IQIFEKGDFSGQMYDTTEDCPSIMEQFHMREIHSCKVLEGVWIFYELPNYRGRQYLLDKKEYRKPIDWGAASPAVQSFRRI [E15D]  -0.046 ± 0.099
16. IQIFEKGDFSGQMYETTEDCPSIMEQFHMREIHSCKVLEGVWIFYELPNYRGRQYLLDKKEYRKPIDWGAASPAVQSVRRI [F78V]  -0.039 ± 0.16
17. IQIFEKGDFSGQMYETTEDCPSIMEQFHMREIHSCKVLEGVWIFYELPNWRGRQYLLDKKEYRKPIDWGAASPAVQSFRRI [Y50W]  -0.036 ± 0.041
18. IQIFEKGDFSGQMYETTEDCPSIMESFHMREIHSCKVLEGVWIFYELPNYRGRQYLLDKKEYRKPIDWGAASPAVQSFRRI [Q26S]  -0.035 ± 0.052
19. IQIFEKGDFSGQMYETTEDCPEIMEQFHMREIHSCKVLEGVWIFYELPNYRGRQYLLDKKEYRKPIDWGAASPAVQSFRRI [S22E]  -0.034 ± 0.083
20. IQIFEKGDFSGQMYETTEDCPSIMEFFHMREIHSCKVLEGVWIFYELPNYRGRQYLLDKKEYRKPIDWGAASPAVQSFRRI [Q26F]  -0.033 ± 0.071
21. IQIFEKGDFSGQMYETTEDCPSIMEQFHMREIHSCKVLEGVWIFYELPNYAGRQYLLDKKEYRKPIDWGAASPAVQSFRRI [R51A]  -0.004 ± 0.057
22. IQIFEKGDFGGQMYETTEDCPSIMEQFHMREIHSCKVLEGVWIFYELPNYRGRQYLLDKKEYRKPIDWGAASPAVQSFRRI [S10G]  -0.004 ± 0.038
23. IQIFEKGDFSGQMYETTEDCPSFMEQFHMREIHSCKVLEGVWIFYELPNYRGRQYLLDKKEYRKPIDWGAASPAVQSFRRI [I23F]  0.001 ± 0.072
24. IQIFEKGDFSGQMYETTEDCPSIMEQFHMREIHSCKVLEGVWIFYELPNYRGRQYLLDKKEYRKPIDWRAASPAVQSFRRI [G69R]  0.012 ± 0.11
25. IQIFEKGDFSPQMYETTEDCPSIMEQFHMREIHSCKVLEGVWIFYELPNYRGRQYLLDKKEYRKPIDWGAASPAVQSFRRI [G11P]  0.012 ± 0.057
26. IQIFEKGDFSGQMYETTEDCPSIMEQFHMREIYSCKVLEGVWIFYELPNYRGRQYLLDKKEYRKPIDWGAASPAVQSFRRI [H33Y]  0.02 ± 0.062
27. IQIFEVGDFSGQMYETTEDCPSIMEQFHMREIHSCKVLEGVWIFYELPNYRGRQYLLDKKEYRKPIDWGAASPAVQSFRRI [K6V]  0.033 ± 0.062
28. IQIFEKGDFSGQMYETTEDCPSIMEQFHMREIHSCKVLEGVWIFYELPNYRGRQYLLDKKNYRKPIDWGAASPAVQSFRRI [E61N]  0.035 ± 0.45
29. IQIFEKGDFSGQMYETTEDCPSIMEQFLMREIHSCKVLEGVWIFYELPNYRGRQYLLDKKEYRKPIDWGAASPAVQSFRRI [H28L]  0.035 ± 0.056
30. IQIFEKGDFSGQMYETTEDCPSIMEQFHMREIDSCKVLEGVWIFYELPNYRGRQYLLDKKEYRKPIDWGAASPAVQSFRRI [H33D]  0.077 ± 0.055
31. IQIFEKGYFSGQMYETTEDCPSIMEQFHMREIHSCKVLEGVWIFYELPNYRGRQYLLDKKEYRKPIDWGAASPAVQSFRRI [D8Y]  0.078 ± 0.063
32. IQIFEKGDFSGQMYETTEDCPSIMEQFHMQEIHSCKVLEGVWIFYELPNYRGRQYLLDKKEYRKPIDWGAASPAVQSFRRI [R30Q]  0.11 ± 0.088
33. IQIFEKGDFSGQMYETTEDCPSIMEQFHMREIHSCKVLEGVWEFYELPNYRGRQYLLDKKEYRKPIDWGAASPAVQSFRRI [I43E]  0.117 ± 0.063
34. IQIFEKGDFSGQMYETTEDCPSIMEQFHMREIHSCKVLEGVWIFYELPNYRGRQYLLDKKEYRKPIRWGAASPAVQSFRRI [D67R]  0.146 ± 0.12
